Source: paper PMC7226614

Molecular target: Myc-GRAF3 (human) (UniProt A6NI28)
Sequence of UniProt A6NI28 (A6NI28 whole entry): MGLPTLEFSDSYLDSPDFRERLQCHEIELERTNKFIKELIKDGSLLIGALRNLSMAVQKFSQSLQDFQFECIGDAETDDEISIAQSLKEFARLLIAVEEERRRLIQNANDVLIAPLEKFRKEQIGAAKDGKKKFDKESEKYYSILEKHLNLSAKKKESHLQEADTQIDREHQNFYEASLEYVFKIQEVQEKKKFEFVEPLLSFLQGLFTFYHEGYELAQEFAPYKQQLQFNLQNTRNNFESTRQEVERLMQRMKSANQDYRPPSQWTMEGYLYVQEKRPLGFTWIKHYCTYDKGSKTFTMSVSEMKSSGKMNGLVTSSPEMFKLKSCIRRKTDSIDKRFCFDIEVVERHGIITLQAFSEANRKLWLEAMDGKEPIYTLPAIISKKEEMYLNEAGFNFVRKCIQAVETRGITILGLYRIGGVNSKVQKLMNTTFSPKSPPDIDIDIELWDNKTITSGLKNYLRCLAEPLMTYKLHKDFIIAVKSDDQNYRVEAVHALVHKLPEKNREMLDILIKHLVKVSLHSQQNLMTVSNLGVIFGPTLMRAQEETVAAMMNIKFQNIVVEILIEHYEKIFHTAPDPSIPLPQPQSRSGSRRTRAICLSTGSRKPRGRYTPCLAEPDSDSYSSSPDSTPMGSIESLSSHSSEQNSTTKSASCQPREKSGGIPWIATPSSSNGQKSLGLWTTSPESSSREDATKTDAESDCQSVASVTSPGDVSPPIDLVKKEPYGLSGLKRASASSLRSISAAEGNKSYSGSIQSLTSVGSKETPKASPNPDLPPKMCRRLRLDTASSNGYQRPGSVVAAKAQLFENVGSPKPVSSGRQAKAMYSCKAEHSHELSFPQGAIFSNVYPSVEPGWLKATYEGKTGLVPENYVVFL

RhoA-dependent actin stress fibers (phalloidin staining) in RaAoSMC; cells with reduced stress fibers: 58/59 with Myc-GRAF3 alone, 5/72 with Myc-GRAF3 and Flag-BAR-PH: 5 of 72 cells
Substance: Flag-GRAF3 Bar-PH (domain or fragment)
